# According to patent US20260049143A1 (KYMAB, published 2026):
# T1: mouse ICOS-mFc (Chimerigen) (mouse, UniProt Q9WVS0 21-141, limits assumed)
# T1 construct: Bought fusion; also called mICOS; recombinant mouse ICOS protein; not shown: mouse Fc
# T1 sequence: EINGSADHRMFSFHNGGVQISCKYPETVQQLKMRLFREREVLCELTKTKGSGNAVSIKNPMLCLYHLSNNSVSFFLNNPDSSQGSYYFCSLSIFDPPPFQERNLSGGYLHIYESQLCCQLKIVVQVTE
# T2: human ICOS-mFc (Chimerigen) (human, UniProt Q9Y6W8 21-140, limits assumed)
# T2 construct: Bought fusion; also called hICOS; recombinant human ICOS protein; not shown: mouse Fc
# T2 sequence: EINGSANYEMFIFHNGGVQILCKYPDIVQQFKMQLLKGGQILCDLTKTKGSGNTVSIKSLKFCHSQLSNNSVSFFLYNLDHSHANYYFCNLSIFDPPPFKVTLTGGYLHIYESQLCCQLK
# B1: STIM003_457 (bispecific antibody, V domains shown, not shown: a dimerising Fc or GST)
# VH: EVQLVESGGGVVRPGGSLRLSCVASGVTFDDYGMSWVRQAPGKGLEWVSGINWNGGDTDYSDSVKGRFTISRDNAKNSLYLQMNSLRAEDTALYYCARDFYGSGSYYHVPFDYWGQGILVTVSS
# VL: EIVLTQSPGTLSLSPGERATLSCRASQSVSRSYLAWYQQKRGQAPRLLIYGASSRATGIPDRFSGDGSGTDFTLSISRLEPEDFAVYYCHQYDMSPFTFGPGTKVDIK
# notes: mAb^2 IgG1; also called ST1M003_457; STIM003_457 mAb^2
# B2: STIM001_457 (bispecific antibody, V domains shown, not shown: a dimerising Fc or GST)
# VH: QVQVVQSGAEVKKPGASVKVSCKASGYTFSTFGITWVRQAPGQGLEWMGWISAYNGDTNYAQNLQGRVIMTTDTSTSTAYMELRSLRSDDTAVYYCARSSGHYYYYGMDVWGQGTTVTVSS
# VL: DIVMTQSPLSLPVTPGEPASISCRSSQSLLHSNEYNYLDWYLQKPGQSPQLLIFLGSNRASGVPDRFSGSGSGTDFTLKITRVEAEDVGIYYCMQSLQTPLTFGGGTKVEIK
# notes: mAb^2 IgG1; also called STIM001_457 mAb^2
# Legend:
# [1] = biological target: T1, mouse ICOS-mFc (Chimerigen); experiment: DELFIA ELISA, coated mouse ICOS-mFc, N=3
# Procedure: (§1) Recombinant ICOS proteins, human ICOS-mFc or mouse ICOS-mFc (Chimerigen) were diluted in 1×PBS and added to Black Hi-bind plates (Griener) at 1 μg/ml, 50 μl/well. Recombinant PD-L1 proteins, human PD-L1-Flag-His or mouse-His were diluted in 1×PBS and added to Black Hi-bind plates (Griener) at 4 μg/ml, 50 μl/well. The plates were left overnight at 4° C. The next day plates were washed 3× with 300 μl/well of 1×PBS+0.1% Tween and blocked with 200 μl/well of 1×PBS+1% BSA blocking buffer for 1 hr at RT on a plate shaker. Plates were washed 3× with 300 μl/well of 1×PBS+0.1% Tween.
# (§2) However, human-PD-L1 mAb² antibodies were diluted in 1×PBS+0.1% BSA buffer and diluted 1 in 2 from a starting working concentration of 0.066 μM over an 11 point titration. Titrated antibodies were added to the plates, 50 μl/well and left to incubate for 1 hr at R.T on a plate shaker. Plates were washed 3× with 300 μl/well of 1×PBS+0.1% Tween.
# (§3) DELFIA® Eu-labelled Anti-human IgG(Perkin-Elmer) was diluted 1:500 in DELFIA Assay buffer (Perkin-Elmer) and added to the assay plate (50 μl/well), left to incubate for 1 hr at RT on a plate shaker. […] After incubation, assay was read on Envision plate reader (Perkin Elmer), Time-resolved fluorescence (TRF) was measured at 615 nm.
# [2] = biological target: T1, mouse ICOS-mFc (Chimerigen); experiment: DELFIA ELISA, coated mouse ICOS-mFc, mean
# Procedure: as §1, §2, §3
# [3] = biological target: T2, human ICOS-mFc (Chimerigen); experiment: DELFIA ELISA, coated human ICOS-mFc, N=1
# Procedure: as §1, §2, §3
# [4] = biological target: T1, mouse ICOS-mFc (Chimerigen); experiment: HTRF neutralisation of mouse B7-H2 binding to mouse ICOS-mFc, mean as told in text (table prints 5.07)
# Procedure: (§4) After incubation, assay was read on Envision plate reader (Perkin Elmer) using a standard HTRF protocol. 620 nm and 665 nm channel values were exported to Microsoft Excel and % Delta-F and % Neutralisation calculations performed. Titration curves and IC50 values [M] were plotted using Graphpad (Prism). IC50 values were calculated by first transforming the data using equation X=Log(X). The transformed data was then fitted using nonlinear regression, using fitting algorithm, log (inhibitor) vs. response-variable slope (four parameters).
# [5] = biological target: T1, mouse ICOS-mFc (Chimerigen); experiment: HTRF neutralisation of mouse B7-H2 binding to mouse ICOS-mFc, n3
# Procedure: (§5) 5 μl of human ICOS-mFc (Chimerigen) at 20 nM (5 nM final) or 5 μl of mouse ICOS-mFc (Chimerigen) at 4 nM (1 nM final) were added to relevant assay wells. Plate was incubated for 1 hour (hr) at room temperature (RT).
# as §4
# [6] = biological target: T1, mouse ICOS-mFc (Chimerigen); experiment: HTRF neutralisation of mouse B7-H2 binding to mouse ICOS-mFc, average
# Procedure: as §5, §4
# [7] = biological target: T1, mouse ICOS-mFc (Chimerigen); experiment: HTRF neutralisation of mouse B7-H2 binding to mouse ICOS-mFc, n2
# Procedure: as §5, §4
Binder,EC50 [1],EC50 [2],EC50 [3],IC50 [4],IC50 [5],IC50 [6],IC50 [7]
B1,0.288 nM,0.289 nM,0.51 nM,,,,
B2,,,,5.16 nM,6.32 nM,5.07 nM,5.49 nM
